Patent US20210063414A1, “METHODS FOR PREVENTING AND/OR TREATING BONE LOSS CONDITIONS BY MODULATING IRISIN” (Dana-Farber Cancer Institute, Inc., priority 2018, published 2021)

Tests used:
integrin αV/β5 = biological target: T1, integrin αV/β5 (Homo sapiens, UniProt P06756+P18084); test: FAK phosphorylation in HEK293T cells with forced expression of integrin αV/β5; format: cell-based; conditions: HEK293T with integrin αV/β5, vitronectin-coated plates
T1 construct: expressed in transfected cells; host or cells: HEK293T
T1 sequence (P06756 31-889 limits assumed): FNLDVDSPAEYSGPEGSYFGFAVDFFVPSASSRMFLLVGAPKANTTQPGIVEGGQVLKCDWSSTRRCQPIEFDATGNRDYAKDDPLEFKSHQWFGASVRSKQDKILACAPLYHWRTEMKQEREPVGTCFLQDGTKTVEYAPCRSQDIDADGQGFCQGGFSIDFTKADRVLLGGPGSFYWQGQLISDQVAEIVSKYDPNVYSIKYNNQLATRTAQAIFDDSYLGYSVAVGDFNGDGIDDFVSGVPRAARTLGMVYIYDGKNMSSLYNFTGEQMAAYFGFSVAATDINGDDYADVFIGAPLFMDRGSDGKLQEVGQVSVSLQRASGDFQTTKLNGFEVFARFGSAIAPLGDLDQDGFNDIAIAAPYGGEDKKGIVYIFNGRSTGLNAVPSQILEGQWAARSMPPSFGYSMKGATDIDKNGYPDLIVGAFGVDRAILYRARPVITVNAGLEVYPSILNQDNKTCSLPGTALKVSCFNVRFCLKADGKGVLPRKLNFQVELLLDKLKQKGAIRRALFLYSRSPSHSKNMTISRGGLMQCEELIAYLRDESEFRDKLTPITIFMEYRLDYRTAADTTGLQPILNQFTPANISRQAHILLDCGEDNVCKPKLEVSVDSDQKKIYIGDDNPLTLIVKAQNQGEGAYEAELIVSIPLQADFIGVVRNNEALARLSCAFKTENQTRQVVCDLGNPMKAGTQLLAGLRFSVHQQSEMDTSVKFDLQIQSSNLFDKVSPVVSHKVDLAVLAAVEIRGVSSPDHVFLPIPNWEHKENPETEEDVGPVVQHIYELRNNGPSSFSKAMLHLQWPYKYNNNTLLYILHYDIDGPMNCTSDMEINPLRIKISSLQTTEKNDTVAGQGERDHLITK
T1 sequence (P06756 891-1048 partner limits assumed): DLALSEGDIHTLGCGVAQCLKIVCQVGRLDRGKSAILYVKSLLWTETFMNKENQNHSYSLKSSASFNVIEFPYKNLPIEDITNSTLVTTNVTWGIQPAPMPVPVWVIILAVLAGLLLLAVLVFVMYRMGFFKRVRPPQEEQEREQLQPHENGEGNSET
T1 sequence (P18084 24-799): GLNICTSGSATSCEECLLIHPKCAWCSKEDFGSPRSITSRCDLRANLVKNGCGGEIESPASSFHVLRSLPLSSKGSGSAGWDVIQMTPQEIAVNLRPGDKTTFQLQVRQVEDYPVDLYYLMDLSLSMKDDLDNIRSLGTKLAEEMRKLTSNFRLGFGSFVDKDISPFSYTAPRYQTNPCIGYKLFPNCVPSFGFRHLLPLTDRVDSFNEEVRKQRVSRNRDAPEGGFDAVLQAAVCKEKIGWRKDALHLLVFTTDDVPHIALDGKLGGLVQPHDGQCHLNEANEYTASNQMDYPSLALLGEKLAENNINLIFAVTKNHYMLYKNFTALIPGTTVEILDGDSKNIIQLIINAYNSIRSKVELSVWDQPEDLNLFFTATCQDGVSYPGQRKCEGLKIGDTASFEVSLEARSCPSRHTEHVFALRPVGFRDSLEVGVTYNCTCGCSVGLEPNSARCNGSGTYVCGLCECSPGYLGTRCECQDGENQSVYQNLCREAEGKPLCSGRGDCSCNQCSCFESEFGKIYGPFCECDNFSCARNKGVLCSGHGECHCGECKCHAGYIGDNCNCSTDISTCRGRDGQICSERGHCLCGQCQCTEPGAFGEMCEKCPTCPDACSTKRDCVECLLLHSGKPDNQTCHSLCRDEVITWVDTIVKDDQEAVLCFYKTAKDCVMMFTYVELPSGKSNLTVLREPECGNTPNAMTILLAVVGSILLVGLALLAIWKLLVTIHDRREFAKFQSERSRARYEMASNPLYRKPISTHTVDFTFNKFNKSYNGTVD
Method: 100 nM irisin was incubated with 5 nM indicated his-tag integrins followed by immunoprecipitation using Ni-NTA agaroses. Precipitated integrins and co-precipitated irisin were analyzed by immunoblot analysis. […] HEK293T cells were seeded and incubated until 50% cell density. The cells were transfected with 0.1 μg plasmids of indicated integrins. After 48 hours, the cells were incubated with Freestyle293 medium for 3 hours and were treated with indicated concentration of irisin for 5 minutes. Cells were lysed to detect the indicated protein level using immunoblot analysis. […] MLO-Y4 cells were treated as described in FIG. 2D with addition of pretreatment of indicated antagonistic antibodies for 10 minutes. Cells were lysed to detect the indicated protein level using immunoblot analysis. […] MLO-Y4 cells were treated as described in FIG. 1B except with addition of the pretreatment of indicated antagonistic antibodies for 10 minutes. Sclerostin mRNA level was analyzed by qRT-PCR. Cyclophilin was used for house-keeping gene. […] The ribbon diagram is colored by HDX stabilization/destabilization. Percentages of deuterium differences are color-coded according to the smooth color gradient key at the bottom. Crystal structure of irisin dimer is from Protein Data Bank (PDB) (4 lsd) and a homology model of integrin β5 was built based on integrin β3 structure from PDB (4MMX).
100 nM irisin was incubated with 5 nM indicated his-tag integrins followed by immunoprecipitation using Ni-NTA agaroses. Precipitated integrins and co-precipitated irisin were analyzed by immunoblot analysis. […] HEK293T cells were seeded and incubated until 50% cell density. The cells were transfected with 0.1 μg plasmids of indicated integrins. After 48 hours, the cells were re-split to indicated dose of vitronectin-coated plates. Cells were incubated with culture medium for 3 hours. Cells were lysed to detect the indicated protein level using immunoblot analysis. FIG. 15C and FIG. 15D show the immunoblot data. Cells were treated and analyzed as FIG. 14B except using plasmids encoding integrin α5/β1 or integrin α11/β1 (FIG. 15C) integrin αV/β1(FIG. 15D).
MLO-Y4 cells were treated and analyzed as described in FIG. 5A with addition of pretreatment of control RGD peptide, cyclo RGDyK (cRGDyK), or SB273005. […] HEK293 cells were treated and analyzed as described in FIG. 14B except the treatment of different dose of cyclo RGDyK. […] 8 weeks old male mice were treated and analyzed as described in FIG. 5D except the additional group with co-injection of 1 mg/kg SB273005. […]
(§1) Cells were harvested in RIPA buffer containing protease-inhibitor cocktail and phosphataseinhibitor cocktail. […] Protein levels were analyzed via western blot using indicated antibody. […]

integrin αV/β3 = biological target: T2, integrin αV/β3 (Homo sapiens, UniProt P05106+P06756); test: FAK phosphorylation in HEK293T cells with forced expression of integrin αV/β3; format: cell-based; conditions: HEK293T with integrin αV/β3, vitronectin-coated plates
T2 construct: expressed in transfected cells; host or cells: HEK293T
T2 sequence (P06756 31-889 limits assumed): as the sequence (P06756 31-889 limits assumed) above
T2 sequence (P06756 891-1048 partner limits assumed): as the sequence (P06756 891-1048 partner limits assumed) above
T2 sequence (P05106 27-788): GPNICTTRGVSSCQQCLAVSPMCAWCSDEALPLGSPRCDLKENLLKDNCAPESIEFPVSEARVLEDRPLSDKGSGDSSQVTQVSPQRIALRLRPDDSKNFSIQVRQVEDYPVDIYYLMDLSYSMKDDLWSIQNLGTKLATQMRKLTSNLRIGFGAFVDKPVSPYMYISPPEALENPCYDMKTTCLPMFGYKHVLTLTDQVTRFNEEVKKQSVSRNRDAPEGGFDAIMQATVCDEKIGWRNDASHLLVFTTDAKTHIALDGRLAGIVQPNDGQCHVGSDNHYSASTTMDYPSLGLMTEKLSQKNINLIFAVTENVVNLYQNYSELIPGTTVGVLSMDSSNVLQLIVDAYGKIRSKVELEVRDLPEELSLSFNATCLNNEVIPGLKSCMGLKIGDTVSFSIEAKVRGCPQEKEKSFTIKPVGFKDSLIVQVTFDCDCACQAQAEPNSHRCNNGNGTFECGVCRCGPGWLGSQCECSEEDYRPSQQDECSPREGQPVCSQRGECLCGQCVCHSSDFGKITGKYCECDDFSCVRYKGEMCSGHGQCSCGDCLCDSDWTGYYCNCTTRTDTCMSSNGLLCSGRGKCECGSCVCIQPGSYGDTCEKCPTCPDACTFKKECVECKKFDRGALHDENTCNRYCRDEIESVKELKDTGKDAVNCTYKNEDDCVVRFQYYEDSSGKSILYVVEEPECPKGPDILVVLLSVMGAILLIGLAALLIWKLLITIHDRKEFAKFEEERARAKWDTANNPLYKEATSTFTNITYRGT
Method: 100 nM irisin was incubated with 5 nM indicated his-tag integrins followed by immunoprecipitation using Ni-NTA agaroses. Precipitated integrins and co-precipitated irisin were analyzed by immunoblot analysis. […] HEK293T cells were seeded and incubated until 50% cell density. The cells were transfected with 0.1 μg plasmids of indicated integrins. After 48 hours, the cells were incubated with Freestyle293 medium for 3 hours and were treated with indicated concentration of irisin for 5 minutes. Cells were lysed to detect the indicated protein level using immunoblot analysis. […] MLO-Y4 cells were treated as described in FIG. 2D with addition of pretreatment of indicated antagonistic antibodies for 10 minutes. Cells were lysed to detect the indicated protein level using immunoblot analysis. […] Sclerostin mRNA level was analyzed by qRT-PCR. […]
100 nM irisin was incubated with 5 nM indicated his-tag integrins followed by immunoprecipitation using Ni-NTA agaroses. Precipitated integrins and co-precipitated irisin were analyzed by immunoblot analysis. […] Cells were treated and analyzed as FIG. 14B except using plasmids encoding integrin α5/β1 or integrin α11/β1 (FIG. 15C) integrin αV/β1(FIG. 15D). […]
as §1

phosphorylation of FAK (positive control) (integrin αV/β5): induced phosphorylation of FAK | phosphorylation of FAK (positive control) (integrin αV/β3): induced phosphorylation of FAK
Substance: Vitronectin: a ligand for integrin αV family, positive control [reference compound]
